The values that follow come from a protein production outcome set (Wang et al. 2014).

The data set is described as follows: label from the status in PepcDB records.
As for “MSHPDYRMNLRSLGTHRGVSAVAGPHDIGASPGDKKSKNRSTRGKKKSIFETYMSKEDVSEGLKRGTLIQGVLRINPKKFHEAFIPSPDGDRDIFIDGVVARNRALNGDLVVVKLLPEEHWKVVKPESNDKETEAAYESDIPEELCGHHLPQQSLKSYNDSPDVIVEAQFDGSDSEDGHGITQNVLVDGVKKLSVCVSEKGREDGDAPVTKDETTCISQDTRALSEKSLQRSAKVVYILEKKHSRAATGFLKLLADKNSELFRKYALFSPSDHRVPRIYVPLKDCPQDFVARPKDYANTLFICRIVDWKEDCNFALGQLAKSLGQAGEIEPETEGILTEYGVDFSDFSSEVLECLPQGLPWTIPPEEFSKRRDLRKDCIFTIDPSTARDLDDALSCKPLADGNFKVGVHIADVSYFVPEGSDLDKVAAERATSVYLVQKVVPMLPRLLCEELCSLNPMSDKLTFSVIWTLTPEGKILDEWFGRTIIRSCTKLSYEHAQSMIESPTEKIPAKELPPISPEHSSEEVHQAVLNLHGIAKQLRQQRFVDGALRLDQLKLAFTLDHETGLPQGCHIYEYRESNKPCCAGTPRPKQGCSVTWWNSATRWGCPWTSAPQEPSIKA”, the protein production result was “failed”.
Regarding “MYTNVHSANNYQANLSNRSYGFKELAVLYFPNIAPASASIRLKQWIKDDVELLGSLEETNYHLSNRILTPKQRDLITTTFGSPFLEHHHHHH”, the protein production entry is “failed”.
Turning to “AIAEALWTNKIEDPLSLMSFTVPPLRLLSAAMWQVTERRQVKHYGMLEEFVSLVTETIPELLNQHQRAQLILGLRARHLLELCRGKHQGSLKEIQPHLKRLCRPRVNKEFADEDMEESEACFLDLVRTLISNPKEKEHYFQNIFPEEYGPKFDKNLHALMEDFLLKLDRMVSVPDLSETVSWLRTCPSLLDDCIDSVSVPKDMKSLLEHHTAKGNLQDSEGNNCTFSSQSLPPLVQVVISSDHTESGEPSDLNGQDNDDEQASKTSSDGWTIKKIKLKTETEEEDNDQNWPITEAKSTGTRDGYDDGCLGEEPNQTQS”, the protein production result is given as “failed”.
As for “MSLEAIRIGEINSYSQIPAFTLPYRNGWQLAVEQINAAGGLLGGRPLEVISRDDGGDPGKAVTAAQELLTRHGVHALAGTFLSHVGLAVSDFARQRKVLFMASEPLTDALTWEKGNRYTYRLRPSTYMQAAMLAAEAAKLPITRWATIAPNYEYGQSAVARFKELLLAARPEVTFVAEQWPALYKLDAGPTVQALQQAEPEGLFNVLFGADLPKFVREGRVRGLFAGRQVVSMLTGEPEYLNPLKDEAPEGWIVTGYPWYDIDTAPHRAFVEAYRARWKEDPFVGSLVGYNTLTAMAVAFEKAGGTESETLVETLKDMAFSTPMGPLSFRASDHQSTMGAWVGRTALRDGKGVMVDWRYVDGGSVLPPPEVVSAWRPAGEGHHHHHH”, the protein production entry is “not failed”.
For the sequence “MLKSKIKEEYVQMDQVDWKPFPAAFSTGGIRWKLLHVSPEMGSWTAIFDCPAGSSFAAHVHVGPGEYFLTKGKMDVRGGKAAGGDTAIAPGYGYESANARHDKTEFPVASEFYMSFLGPLTFVKPDGSPIAVIGWEDAQGAWAA”, the protein production entry is given as “not failed”.
For “MKLYLILLPVLYLIVSYISIFKMHSVITRILRIVMGILLLFVVALTTLQFPKENWWVFVVLLLLVGNVEVTGFKELKDDKKGVSILNILSLLLFVIFIILIFILY”, the protein production result is recorded as “failed”.
To “MALFKRSSASAKGFDWMGLLWLFLFFWYFSGITQLLIQLTDTSGFTGFRQAFFMSAIWLAPMLLFPARTKVMAAVIGVVLWACSMASLGYFFVYQQEFSQSVIFIMFESNPSEAGEYLTQYFAWWMLLAFLAHSAFAFFLWTRLRPVYLPRGQALVAATAILVAIVGYPLVKQISRADTLAAGLEKFETRIEPAVPWQMVIAYRRYREQLDGMQGMLASASKIAPLTNLKDSMANQPATLVLVIGESTNRQRMSLYGYPRQTTPELDKLKDQLAIFNNVITPRPYTIEALQQVLTFADEENPDLYLKSPSLVSVMKQAGYKTYWITNQQTMTKRNTMLTTFSEQADEQVYLNNNRNQNARQYDGDVLEPFSKALADSAPRKFIVVHLLGTHMSYQYRYPPSFDKFNDRQGVPAGVRDDQLPTYNSYDNAVLYNDFVVSNLIKNYAKTDPNGFLLYLSDHGEDVFDSAGHDTLGRNEARPTAPMYTIPFMAWASPKWRETHDWSFASDLSRPYMSSQLIHTWADLAGLSFDELDHSRSLVSDSFKPRPLLIGDPYSRQSKPLIDFSLMKPKAPVEATVVQK” belongs “failed”.
